This note sets out measurements from PMC12985673, “Weaker neuroligin 2–neurexin β1 interaction tethers membranes and recruits gephyrin at membrane junctions through clustering” (Science Advances, 2026).

The series concerns the molecule itself. The series can be described thus: cryo-EM structure; full-length NL2 alone; 20 mM Hepes-Na pH 7.5, 150 mM NaCl, 1 mM MgCl2, 0.5 mM CaCl2, 0.06% digitonin, brain polar lipid extract; only the ECD resolved.

B1: full-length neuroligin 2 (NL2), mouse, without the splice insert at site A (receptor, UniProt Q69ZK9 15-836, looked up)
chain: QRGGGGPGGGAPGGPGLGLGSLGEERFPVVNTAYGRVRGVRRELNNEILGPVVQFLGVPYATPPLGARRFQPPEAPASWPGVRNATTLPPACPQNLHGALPAIMLPVWFTDNLEAAATYVQNQSEDCLYLNLYVPTEDDIRDSGKKPVMLFLHGGSYMEGTGNMFDGSVLAAYGNVIVVTLNYRLGVLGFLSTGDQAAKGNYGLLDQIQALRWLSENIAHFGGDPERITIFGSGAGASCVNLLILSHHSEGLFQKAIAQSGTAISSWSVNYQPLKYTRLLAAKVGCDREDSTEAVECLRRKSSRELVDQDVQPARYHIAFGPVVDGDVVPDDPEILMQQGEFLNYDMLIGVNQGEGLKFVEDSAESEDGVSASAFDFTVSNFVDNLYGYPEGKDVLRETIKFMYTDWADRDNGEMRRKTLLALFTDHQWVAPAVATAKLHADYQSPVYFYTFYHHCQAEGRPEWADAAHGDELPYVFGVPMVGATDLFPCNFSKNDVMLSAVVMTYWTNFAKTGDPNQPVPQDTKFIHTKPNRFEEVVWSKFNSKEKQYLHIGLKPRVRDNYRANKVAFWLELVPHLHNLHTELFTTTTRLPPYATRWPPRTPGPGTSGTRRPPPPATLPPESDIDLGPRAYDRFPGDSRDYSTELSVTVAVGASLLFLNILAFAALYYKRDRRQELRCRRLSPPGGSGSGVPGGGPLLPTAGRELPPEEELVSLQLKRGGGVGADPAEALRPACPPDYTLALRRAPDDVPLLAPGALTLLPSGLGPPPPPPPPSLHPFGPFPPPPPTATSHNNTLPHPHSTTRV
modifications: N-glycans
notes: Neuroligin 2, mouse, amplified from pNICE-NL2(−); lacks the splice insert at site A (missing G153-T169 in UniProt Q69ZK9); its own signal peptide was replaced with that of NL1 followed by an HA tag; PreScission site before the C-terminal EGFP; S1A; also called NL2 WT; wild-type NL2; source: HEK293T, BacMam virus, purified (GFP-nanobody resin, eluted by PPX digestion, SEC); not shown: EGFP, …
On to B1, for which the stoichiometry N (usually a count of units in the complex or per binding partner) was found to be 2.
